Paper PMC11704961

Assays:
Assay in all cases: EMSA
[1] = molecular target: T1, SRF (His-SRF);Elk1 (GST-His-Elk1) (human;human, UniProt P11831;P19419 1-508;1-428, |)
T1 sequence 1: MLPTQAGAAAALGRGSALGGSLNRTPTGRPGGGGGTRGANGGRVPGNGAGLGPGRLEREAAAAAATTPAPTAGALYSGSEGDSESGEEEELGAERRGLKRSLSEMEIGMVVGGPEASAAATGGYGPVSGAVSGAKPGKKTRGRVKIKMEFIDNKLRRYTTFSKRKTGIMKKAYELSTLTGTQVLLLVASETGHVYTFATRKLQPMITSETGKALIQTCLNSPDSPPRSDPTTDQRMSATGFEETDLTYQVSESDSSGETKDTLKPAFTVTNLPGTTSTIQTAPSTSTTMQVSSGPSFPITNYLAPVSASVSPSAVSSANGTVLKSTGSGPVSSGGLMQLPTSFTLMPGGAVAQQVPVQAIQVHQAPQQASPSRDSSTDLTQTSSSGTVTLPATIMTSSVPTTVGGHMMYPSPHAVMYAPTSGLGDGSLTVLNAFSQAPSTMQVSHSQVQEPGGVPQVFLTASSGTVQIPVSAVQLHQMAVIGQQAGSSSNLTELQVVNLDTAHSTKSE
T1 sequence 2: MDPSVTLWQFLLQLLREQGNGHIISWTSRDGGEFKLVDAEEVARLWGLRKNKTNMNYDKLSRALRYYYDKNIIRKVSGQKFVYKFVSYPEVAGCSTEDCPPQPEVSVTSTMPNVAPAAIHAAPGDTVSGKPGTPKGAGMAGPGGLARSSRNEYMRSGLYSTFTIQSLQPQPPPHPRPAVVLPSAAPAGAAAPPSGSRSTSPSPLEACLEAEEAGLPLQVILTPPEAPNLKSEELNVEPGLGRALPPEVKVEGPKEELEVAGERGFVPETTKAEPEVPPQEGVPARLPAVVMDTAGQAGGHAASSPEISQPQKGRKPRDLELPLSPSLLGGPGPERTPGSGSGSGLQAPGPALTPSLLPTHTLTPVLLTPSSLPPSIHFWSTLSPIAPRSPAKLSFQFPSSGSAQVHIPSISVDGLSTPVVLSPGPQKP

IPMK = IPMK (human, UniProt Q8NFU5 1-416)
Sequence of IPMK (Q8NFU5 whole entry): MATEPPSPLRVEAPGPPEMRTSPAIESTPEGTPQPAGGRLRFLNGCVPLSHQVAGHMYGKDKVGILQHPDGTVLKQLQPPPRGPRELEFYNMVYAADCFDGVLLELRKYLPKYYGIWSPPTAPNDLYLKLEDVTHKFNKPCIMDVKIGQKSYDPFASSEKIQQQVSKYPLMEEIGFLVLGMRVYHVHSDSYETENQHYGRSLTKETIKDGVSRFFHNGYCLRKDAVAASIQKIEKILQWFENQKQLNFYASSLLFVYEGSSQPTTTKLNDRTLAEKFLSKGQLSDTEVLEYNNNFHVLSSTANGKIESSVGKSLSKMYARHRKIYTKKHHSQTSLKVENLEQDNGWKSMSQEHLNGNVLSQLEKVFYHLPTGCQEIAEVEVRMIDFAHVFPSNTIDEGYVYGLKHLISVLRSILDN

SRF (His-SRF) = molecular target: T2, SRF (His-SRF) (human, UniProt P11831 1-508)
T2 sequence: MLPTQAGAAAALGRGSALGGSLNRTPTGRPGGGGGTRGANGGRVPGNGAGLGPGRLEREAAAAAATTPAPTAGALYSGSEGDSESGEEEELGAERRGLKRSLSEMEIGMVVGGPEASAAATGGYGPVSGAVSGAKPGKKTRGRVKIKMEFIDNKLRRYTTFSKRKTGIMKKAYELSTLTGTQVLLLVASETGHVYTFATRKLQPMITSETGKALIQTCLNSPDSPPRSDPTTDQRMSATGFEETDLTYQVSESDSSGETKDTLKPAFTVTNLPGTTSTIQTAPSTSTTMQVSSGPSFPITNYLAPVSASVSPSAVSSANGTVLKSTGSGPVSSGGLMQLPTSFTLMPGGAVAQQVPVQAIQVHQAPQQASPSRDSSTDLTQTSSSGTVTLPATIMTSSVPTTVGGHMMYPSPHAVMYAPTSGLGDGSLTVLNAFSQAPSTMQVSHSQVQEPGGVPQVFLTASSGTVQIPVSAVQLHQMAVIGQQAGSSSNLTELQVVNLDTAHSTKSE

B1: c-fos SRE EMSA probe (dsDNA)
DNA 1: CTAAGCTTGCTGACGCAGATGTCCTAATATGGACATCCTGTCCCGGGGA
DNA 2: TCCCCGGGACAGGATGTCCATATTAGGACATCTGCGTCAGCAAGCTTAG
B1: binds [1]; no binding (IPMK); binds (SRF (His-SRF)).
